Changes are numbered by the printed parent chain.
B1: TNFRI126-A2 (receptor)
chain: MDSVCPQGKYIHPQNNSICCTKCHKGTYLYNDCPGPGQDTDCRECESGSFTAIENFLPACLSCSKCRKEMGQVEISSCTVDRDTVCGCRKNQYRHYWSENLFQCFNCSLCLNGTVHLSCQEKQNTVC
notes: Met-TNFRI126 mutant made in E. coli
B2: TNFRI126-A9 (receptor)
chain: B1 chain with I53M
notes: as for B1
B3: TNFRI126-A18 (receptor)
chain: B1 chain with I53H
notes: as for B1
B4: TNFRI126-A12 (receptor)
chain: B1 chain with I53N
notes: as for B1
B5: TNFRI126-A17 (receptor)
chain: B1 chain with I53R
notes: as for B1
B6: TNFRI126-A15 (receptor)
chain: B1 chain with I53Y
notes: as for B1
B7: TNFRI126-A16 (receptor)
chain: B1 chain with I53K
notes: as for B1
B8: TNFRI126-A5 (receptor)
chain: B1 chain with I53V
notes: as for B1
B9: TNFRI126-A10 (receptor)
chain: B1 chain with I53W
notes: as for B1
B10: TNFRI126-A13 (receptor)
chain: B1 chain with I53Q
notes: as for B1
B11: TNFRI126-A4 (receptor)
chain: B1 chain with I53A
notes: as for B1
B12: TNFRI126-A8 (receptor)
chain: B1 chain with I53F
notes: as for B1
B13: TNFRI126-A7 (receptor)
chain: B1 chain with I53P
notes: as for B1
B14: TNFRI126-A6 (receptor)
chain: B1 chain with I53L
notes: as for B1
B15: TNFRI126-A14 (receptor)
chain: B1 chain with I53T
notes: as for B1
B16: TNFRI126-A1 (receptor)
chain: B1 chain with I53S
notes: as for B1
B17: TNFRI126-A3 (receptor)
chain: B1 chain with I53G
notes: as for B1
B18: TNFRI126-A19 (receptor)
chain: B1 chain with I53D
notes: as for B1
B19: TNFRI171-S31 (receptor)
chain: MDSVCPQGKYIHPQNNSICCTKCHKGTYVYNDCPGPGQDTDCRECESGSFTAIENFLPACLSCSKCRKEMGQVEISSCTVDRDTVCGCRKNQYRHYWSENLFQCFNCSLCLNGTVHLSCQEKQNTVCTCHAGFFLRENECVSCSNCKKSLECTKLCLPQIENVKGTEDSGTT
notes: Met-TNFRI171 superlead mutant made in E. coli
B20: TNFRI171-S60 (receptor)
chain: B19 chain with I53H, K122N
notes: as for B19
B21: TNFRI171-S46 (receptor)
chain: B19 chain with A59G
notes: as for B19
B22: TNFRI171-S50 (receptor)
chain: B19 chain with V29L, E54P, A59G, K122N
notes: as for B19
B23: TNFRI171-S41 (receptor)
chain: B19 chain with I53H
notes: as for B19
B24: TNFRI171-S35 (receptor)
chain: B19 chain with V29L, D168N
notes: as for B19
B25: TNFRI171-S61 (receptor)
chain: B19 chain with I53H, D168N
notes: as for B19
B26: TNFRI171-S62 (receptor)
chain: B19 chain with A59G, K122Q
notes: as for B19
B27: TNFRI171-S45 (receptor)
chain: B19 chain with V29L, I53H, D168N
notes: as for B19
B28: TNFRI171-S38 (receptor)
chain: B19 chain with V29L, I53M, K122N
notes: as for B19
B29: TNFRI171-S42 (receptor)
chain: B19 chain with V29L, I53H, K122Q
notes: as for B19
B30: TNFRI171-S56 (receptor)
chain: B19 chain with I53M, K122Q
notes: as for B19
B31: TNFRI171-S52 (receptor)
chain: B19 chain with V29L, E54P, A59G, D168N
notes: as for B19
B32: TNFRI171-S47 (receptor)
chain: B19 chain with I53M, A59G
notes: as for B19
B33: TNFRI171-S59 (receptor)
chain: B19 chain with I53H, K122Q
notes: as for B19
B34: TNFRI171-S43 (receptor)
chain: B19 chain with V29L, I53H, K122N
notes: as for B19
B35: TNFRI171-S63 (receptor)
chain: B19 chain with I53M, A59G, K122N
notes: Met-TNFRI171 superlead mutant made in E. coli; also called TNFRI-S63
B36: TNFRI171-S53 (receptor)
chain: B19 chain with K122Q
notes: as for B19
B37: TNFRI171-S48 (receptor)
chain: B19 chain with E54P, A59G
notes: as for B19
B38: TNFRI171-S34 (receptor)
chain: B19 chain with V29L, E161Q
notes: as for B19
B39: TNFRI171-S44 (receptor)
chain: B19 chain with V29L, I53H, E161Q
notes: as for B19
B40: TNFRI171-S33 (receptor)
chain: B19 chain with V29L, K122N
notes: as for B19
B41: TNFRI171-S57 (receptor)
chain: B19 chain with I53M, K122N
notes: as for B19
B42: TNFRI171-S55 (receptor)
chain: B19 chain with D168N
notes: as for B19
B43: TNFRI171-S58 (receptor)
chain: B19 chain with I53M, D168N
notes: as for B19
B44: TNFRI171-S51 (receptor)
chain: B19 chain with V29L, E54P, A59G, E161Q
notes: as for B19
B45: TNFRI171-S39 (receptor)
chain: B19 chain with V29L, I53M, E161Q
notes: as for B19
B46: TNFRI171-S40 (receptor)
chain: B19 chain with V29L, I53M, D168N
notes: as for B19
B47: TNFRI171-S36 (receptor)
chain: B19 chain with I53M
notes: as for B19
B48: TNFRI171-S49 (receptor)
chain: B19 chain with V29L, E54P, A59G, K122Q
notes: as for B19
B49: TNFRI171-S37 (receptor)
chain: B19 chain with V29L, I53M, K122Q
notes: as for B19
B50: TNFRI171-S32 (receptor)
chain: B19 chain with V29L, K122Q
notes: as for B19
B51: TNFRI171-S54 (receptor)
chain: B19 chain with K122N
notes: as for B19

molecular target: T1, TNF-α (UniProt P01375 77-233, limits assumed); test: competition ELISA: sample vs plate-bound TNFRI190 for TNF-α, from IC50, relative to wild-type TNFRI126
T1 construct: also called tumor necrosis factor; ligand
Procedure: (§1) Each well was washed three times with 300 μL of washing buffer (0.05% Tween-20, PBS, pH 7.4) and incubated at room temperature for 2 hours with 300 μL of a blocking buffer (5% skim milk, PBS, pH 7.4). Then, each well was washed as mentioned above. A sample of interest was diluted to concentrations of 500 nM, 125 nM, 31 nM, 7.8 nM, 1.9 nM, 0.48 nM, 0.12 nM, and 0.03 nM in series and loaded in an amount of 100 μL into each well in duplicate. To each well was added 100 μL of 50 ng/ml TNF-α, followed by incubation at room temperature for 2 hours. After the wells were washed with a washing buffer, 100 μg/mL anti-TNF-α antibody solution was diluted 1/1000, added in an amount of 100 μL per each well, and incubated at room temperature for 2 hours. After the plates were washed with a washing buffer, a substrate was added in an amount of 100 μL to each well and reacted at room temperature for 15 min. In each well, 100 μL of the substrate 3,3′,5,5′-tetramethylbenzidine (RnD, Cat. No: DY999) was reacted at room temperature for 15 min, followed by adding 50 μL of 1.0 M sulfuric acid (Samchun Chemical, Cat. No: 52129) to each well to stop the reaction.
Affinity of Met-TNFRI and Met-TNFRI mutants for TNF-α was determined by measuring an absorbance change with concentration and evaluating IC₅₀ value by measuring an absorbance change with concentration.

Binder | Affinity (%)
B1 | 829
B2 | 941
B3 | 1010
B4 | 659
B5 | 771
B6 | 941
B7 | 882
B8 | 712
B9 | 800
B10 | 806
B11 | 524
B12 | 865
B13 | 600
B14 | 741
B15 | 765
B16 | 324
B17 | 341
B18 | 482

molecular target: T1, TNF-α; test: competition ELISA: sample vs plate-bound TNFRI190 for TNF-α, from IC50, relative to wild-type TNFRI171
Procedure: as §1
The affinity of the Met-TNFRI for TNF-α was assayed using the same procedure as in [Experimental Example 1]

Binder | Relative Affinity for Ligand (%)
B19 | 563
B20 | 775
B21 | 805
B22 | 589
B23 | 558
B24 | 521
B25 | 778
B26 | 1200
B27 | 679
B28 | 589
B29 | 416
B30 | 510
B31 | 626
B32 | 758
B33 | 684
B34 | 579
B35 | 1350

Binder | Relative Affinity for Ligand (%)
B36 | 1020
B37 | 594
B38 | 700
B39 | 694
B40 | 568
B41 | 773
B42 | 973
B43 | 978
B44 | 537
B45 | 705
B46 | 773
B47 | 510
B48 | 547
B49 | 668
B50 | 668
B51 | 900

Reference: US20120277142A1 (HANALL BIOPHARMA, published 2012)
